We go through one molecule from patent US20130209489A1 (Amgen, published 2013).

Experiment [1] deals with T1, mature human myostatin (human, UniProt O14793 267-375). Description: cell-based or functional assay.
Experiment [2] has as its target T1, mature human myostatin. Description: cell-based or functional assay. The source holds these as a separate data set.
Experiment [3] deals with T1, mature human myostatin. Description: ratio of the affinities for GDF11 and myostatin.
The target in the next experiment is T2, GDF3 (UniProt Q9NR23 251-364).
T2 sequence (looked up): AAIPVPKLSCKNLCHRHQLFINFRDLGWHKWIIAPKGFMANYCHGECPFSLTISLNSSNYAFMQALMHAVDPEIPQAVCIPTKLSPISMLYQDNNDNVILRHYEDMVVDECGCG
The experiment is described as follows: Biacore SPR, ligand flowed over immobilized antibody. How it is done:
(§1) Binding specificity analysis was carried out for 12A5-5 using Biacore™, a label-free surface plasmon resonance (SPR) based technology for studying biomolecular interactions in real time (GE Healthcare, Chalfont St. Giles, UK). 12A5-5, and ActRIIB/Fc were made in house, TGFbetaR11/Fc and BMPR-1A/Fc were from R & D Systems (Minneapolis, Minn.). […] Ten nanomolar of each of the ligands was flowed over immobilized high density antibody and receptor surfaces. Binding of Myostatin, GDF11, GDF3, Activin A, Activin AB, Activin AC, TGF-beta1, BMP4, BMP9, and BMP10 to their corresponding receptors was tested and used as control to normalize the signals of the ligands binding to 12A5-5 and the other receptors.
In general terms: SPR reads the build-up and loss of mass on a sensor chip optically.

The target of another experiment is T3, Activin A (UniProt P08476 311-426).
T3 sequence (looked up): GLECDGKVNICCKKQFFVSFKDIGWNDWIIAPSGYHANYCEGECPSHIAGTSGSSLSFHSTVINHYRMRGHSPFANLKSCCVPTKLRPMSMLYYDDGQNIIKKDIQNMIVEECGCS
The experiment is described as above. The protocol: as §1

The target in the next experiment is T4, Activin AB (UniProt P08476 311-426; P09529 293-407).
T4 construct: the two chains follow from the usual meaning of Activin AB
T4 sequence (looked up) 1: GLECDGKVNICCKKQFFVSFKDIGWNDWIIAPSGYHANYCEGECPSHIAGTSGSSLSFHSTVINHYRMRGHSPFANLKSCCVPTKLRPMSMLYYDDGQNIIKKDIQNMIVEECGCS
T4 sequence (looked up) 2: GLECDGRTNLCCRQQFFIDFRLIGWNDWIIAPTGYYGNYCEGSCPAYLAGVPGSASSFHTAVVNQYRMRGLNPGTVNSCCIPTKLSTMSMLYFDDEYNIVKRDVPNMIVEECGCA
The experiment is described as above. How it is done: as §1

In the next experiment the target is T5, Activin AC (UniProt P08476 311-426; P55103 237-352).
T5 construct: the two chains follow from the usual meaning of Activin AC
T5 sequence (looked up) 1: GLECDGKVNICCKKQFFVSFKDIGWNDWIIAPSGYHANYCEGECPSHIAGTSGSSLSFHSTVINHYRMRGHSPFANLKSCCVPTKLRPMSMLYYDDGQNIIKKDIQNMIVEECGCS
T5 sequence (looked up) 2: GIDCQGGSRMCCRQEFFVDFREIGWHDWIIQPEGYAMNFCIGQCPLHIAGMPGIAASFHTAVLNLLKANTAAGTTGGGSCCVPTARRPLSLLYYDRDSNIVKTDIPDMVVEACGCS
Described as above. How it is done: as §1

The next experiment has as its target TGF-beta1 (UniProt P01137 279-390). The description is as above. The protocol:
as §1

A further experiment concerns the target T6, BMP4 (UniProt P12644 293-408).
T6 sequence (looked up): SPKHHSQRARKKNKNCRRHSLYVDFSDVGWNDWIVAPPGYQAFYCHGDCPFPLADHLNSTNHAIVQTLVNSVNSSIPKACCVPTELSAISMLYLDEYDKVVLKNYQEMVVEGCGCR
The description is as above. The protocol:
as §1

A further experiment deals with T7, BMP9 (UniProt Q9UK05 320-429).
T7 sequence (looked up): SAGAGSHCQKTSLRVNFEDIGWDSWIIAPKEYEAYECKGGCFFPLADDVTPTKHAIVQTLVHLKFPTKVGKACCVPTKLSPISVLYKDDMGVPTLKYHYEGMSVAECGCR
The description is as above. The protocol:
as §1

A further experiment addresses T8, BMP10 (UniProt O95393 317-424).
T8 sequence (looked up): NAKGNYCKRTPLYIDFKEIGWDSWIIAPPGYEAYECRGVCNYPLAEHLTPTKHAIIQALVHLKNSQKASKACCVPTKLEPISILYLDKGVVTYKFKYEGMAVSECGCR
Described as above. How it is done:
as §1

The target in experiment [4] is T9, Peptide B (CNBr peptide, 85-101) (human).
T9 construct: both are this molecule; also called Peptide D; Reduced CNBr peptide
T9 peptide: LYFNGKEQIIYGKIPAM
The experiment is described as follows: BIAcore competition: 12A5-5 pre-incubated with the HPLC peptide fraction in solution, then passed over immobilized human myostatin. The protocol:
(§2) The strategy for characterizing the epitopes bound by anti-myostatin neutralizing monoclonal antibodies was to use various CNBr—, LysC— and chymotrypsin-generated human myostatin peptides and determine which peptides could be bound by the antibody. In one aspect, this was tested in a BIAcore® competition binding assay where the binding of 12A5-5 to human myostatin immobilized on a BIAcore® chip was determined in the presence or absence of each of the various isolated HPLC peptide fractions. In the absence of any competing peptides, 12A5-5 was able to bind the human myostatin on the chip and produce an RU (resonance unit) response. […] This general procedure was repeated individually for each peptide. […] These binding patterns, coupled with the known identity of the various myostatin peptides were used to determine which regions of myostatin were important (or necessary) for the binding of antibody 12A5-5.

Experiment [5] addresses T10, Peptide H (reduced LysC peptide, 91-97) (human).
T10 peptide: EQIIYGK
The experiment is described as above. The protocol:
as §2

Experiment [6] concerns the target T11, Peptide I (reduced LysC peptide, 55-78) (human).
T11 construct: From TCEP reduction of peptide G
T11 peptide: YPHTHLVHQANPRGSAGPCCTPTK
The description is as above. How it is done:
as §2

In experiment [7] the target is T12, Peptide J (reduced LysC peptide, 98-109) (human).
T12 construct: From TCEP reduction of peptide G
T12 peptide: IPAMVVDRCGCS
Described as above. How it is done: as §2

For experiment [8], the target named is T13, Peptide M (reduced LysC peptide, 1-36) (human).
T13 construct: From TCEP reduction of peptide G
T13 peptide: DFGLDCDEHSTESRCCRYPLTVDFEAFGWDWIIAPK
The experiment is described as above. The protocol: as §2

The target of experiment [9] is T14, Peptide N (chymotryptic peptide, Cys knot, dimer) (human).
T14 chain 1: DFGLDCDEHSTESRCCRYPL
T14 chain 2: KANYCSGECEFVF
T14 chain 3: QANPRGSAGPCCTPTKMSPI
T14 chain 4: GKIPAMVVDRCGCS
The experiment is described as above. The protocol: as §2

TGF-beta1, sequence (P01137 279-390 limits assumed): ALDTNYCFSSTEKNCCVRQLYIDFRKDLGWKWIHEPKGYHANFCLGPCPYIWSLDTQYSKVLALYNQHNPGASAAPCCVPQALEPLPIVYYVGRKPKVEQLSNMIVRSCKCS

B1: anti-myostatin neutralizing monoclonal antibody 12A5-5 (antibody, V domains shown)
VH: EVQLVESGGGLVQPGGSLRLSCAASGFTFSRYWMNWVRQAPGKGLEWVAQIRLKSDNYATHYAESVKGRFTISRDNAKNSLYLQMNSLRAEDTAVYYCTEGLDYWGQGTTVTVSS
VL: DIQMTQSPSSLSASVGDRVTITCKASQDINKYVAWYQQKPGKAPKLLIYYTSWLQPGVPSRFSGSGSGTDFTFTISSLQPEDIATYYCLQYDNLLYTFGQGTKLEIK
notes: in the KinExA assay it was detected with a goat anti-human-Fc antibody, so it carries a human Fc; also called Mab 12A5-5; MAb 12A5-5
With B1, the “IC50 (nM), C2C12/pMARE luciferase reporter cell myostatin activity assay” value with mature human myostatin [1] was found to be 1.85 nM. In addition, the “Cell Assay (IC50), inhibition of myostatin activity” value in the experiment with mature human myostatin [2] came to 1.2 nM. In addition, the “fold selectivity for myostatin over GDF11” value with mature human myostatin [3] is roughly 10000 fold. The binding result with GDF3, in the experiment with Activin A, with Activin AB, in the experiment with Activin AC, with TGF-beta1 and with BMP4 was “no binding (tested: Ten nanomolar of each of the ligands)” throughout. Besides, the binding result with BMP9 was “no binding (tested: Ten nanomolar of each of the ligands)”; with BMP10, “no binding (tested: Ten nanomolar of each of the ligands)”; in [4], “no binding (tested: peptide concentration not printed)”; in [5] it was “no binding (tested: peptide concentration not printed)”; in [6], “no binding (tested: peptide concentration not printed)”; in experiment [7], “no binding (tested: peptide concentration not printed)”. The binding result in experiment [8] and in experiment [9] was “no binding (tested: peptide concentration not printed)” in each case.
